Experimental data reported in patent US20220033460A1, “IDENTIFICATION AND USE OF T CELL EPITOPES IN DESIGNING DIAGNOSTIC AND THERAPEUTIC APPROACHES FOR COVID-19” (priority 2020, published 2022).
Like-named read-outs stand apart in the source and are kept apart here.

Key:
[1] = target: DRB1*15:01; settings: modification not given
[2] = target: SARS-CoV-2 peptide on HLA-A*24:02 (human); assay: barcoded tetramer library on ex vivo CD8+ T cells, single-cell sequencing; T cell clone or line; settings: chains Valpha:Vbeta
[3] = target: DRB01*04:04; settings: chains peptide; modification not given
[4] = target: DRB01*15:01; settings: chains peptide; modification not given
[5] = target: DRB01*07:01; settings: chains peptide; modification not given
[6] = target: DRB01*11:01; settings: chains peptide; modification not given
[7] = target: DRB1*07:01; settings: modification not given
[8] = target: DRB1*07:01; settings: modification not given; remark: listed apart in the source
[9] = target: DRB1*15:01; settings: modification not given; remark: listed apart in the source
[10] = target: DRB1*07:01; settings: modification not given; remark: listed apart in the source
[11] = target: DRB1*15:01; settings: modification not given; remark: listed apart in the source
[12] = target: DRB1*15:01; settings: modification not given; remark: listed apart in the source
[13] = target: DRB1*07:01; settings: modification not given; remark: listed apart in the source
[14] = target: DRB1*15:01; settings: modification not given; remark: listed apart in the source
[15] = target: DRB1*07:01; settings: modification not given; remark: listed apart in the source
[16] = target: DRB1*07:01; settings: modification not given; remark: listed apart in the source
[17] = target: DRB1*15:01; settings: modification not given; remark: listed apart in the source
[18] = target: DRB1*07:01; settings: modification not given; remark: listed apart in the source
[19] = target: DRB01*15:01; settings: modification not given
[20] = target: DRB1*07:01; settings: modification not given; remark: listed apart in the source
[21] = target: DRB1*15:01; settings: modification not given; remark: listed apart in the source
[22] = target: DRB01*04:04; settings: modification not given
[23] = target: DRB01*11:01; settings: modification not given
[24] = target: DRB01*07:01; settings: modification not given
[25] = target: DRB1*15:01; settings: modification not given; remark: listed apart in the source
[26] = target: DRB1*07:01; settings: modification not given; remark: listed apart in the source
[27] = target: DRB1*07:01; settings: modification not given; remark: listed apart in the source
[28] = target: DRB1*07:01; settings: modification not given; remark: listed apart in the source
[29] = target: DRB1*07:01; settings: modification not given; remark: listed apart in the source
[30] = target: DRB1*15:01; settings: modification not given; remark: listed apart in the source
[31] = target: DRB1*15:01; settings: modification not given; remark: listed apart in the source
[32] = target: DRB1*07:01; settings: modification not given; remark: listed apart in the source
[33] = target: DRB1*15:01; settings: modification not given; remark: listed apart in the source
[34] = target: DRB1*07:01; settings: modification not given; remark: listed apart in the source
[35] = target: DRB1*15:01; settings: modification not given; remark: listed apart in the source
[36] = target: DRB1*15:01; settings: modification not given; remark: listed apart in the source
[37] = target: DRB1*07:01; settings: modification not given; remark: listed apart in the source

B1: … (position 295) (peptide)
chain: PLSETKCTLKSFTVE
B1 showed an IC50 [1] of 15500 nM.

B2: TCR_101 (protein)
chain 1: EDQVTQSPEALRLQEGESSSLNCSYTVSGLRGLFWYRQDPGKGPEFLFTLYSAGEEKEKERLKATLTKKESFLHITAPKPEDSATYLCAVHLNDYKLSFGAGTTVTVRA
chain 2: NAGVMQNPRHLVRRRGQEARLRCSPVKGHSHVYWYRQLPEEGLKFMVYLQKENIIDESGMPKERFSAEFPKEGPSILRIQQVVRGDSAAYFCASSRPSGQGNNGYTFGSGTRLTVV
For B2, the No. of Cells [2] was 2 cells.

B3: SEQ ID NO 307 (peptide)
chain: RGHLRIAGHHLGRCDIKDLPKEI
Binder B3 has an IC50 [3] of 1730 nM, an IC50 [4] of 5090 nM and an IC50 [5] of 10200 nM. The IC50 [6] was 561 nM.

B4: … (position 897) (peptide)
chain: PFAMQMAYRFNGIGV
Work on B4 yielded an IC50 [7] of 158 nM.

B5: … (position 557) (peptide)
chain: KKFLPFQQFGRDIAD
In the case of B5, the IC50 [8] is reported as 1630 nM and the IC50 [9] is reported as 6440 nM.

B6: … (position 936) (peptide)
chain: DSLSSTASALGKLQD
In the case of B6, the IC50 [10] is reported as 1020 nM and the IC50 [11] is reported as 10900 nM.

B7: … (position 307) (peptide)
chain: TVEKGIYQTSNFRVQ
B7 gave an IC50 [12] of 378 nM and an IC50 [13] of 316 nM.

B8: … (position 853) (peptide)
chain: QKFNGLTVLPPLLTD
Work on B8 yielded an IC50 [14] of 1710 nM.

B9: … (position 125) (peptide)
chain: NVVIKVCEFQFCNDP
B9 was tested, and the IC50 [15] was 6610 nM.

B10: … (position 679) (peptide)
chain: NSPRRARSVASQSII
Work on B10 yielded an IC50 [16] of 206 nM and an IC50 [17] of 25500 nM.

B11: … (position 688) (peptide)
chain: ASQSIIAYTMSLGAE
In the case of B11, the IC50 [18] is reported as 124 nM.

B12: TCR_76 (protein)
chain 1: QQQVKQSPQSLIVQKGGISIINCAYENTAFDYFPWYQQFPGKGPALLIAIRPDVSEKKEGRFTISFNKSAKQFSLHIMDSQPGDSATYFCAASNRGGSEKLVFGKGTKLTVNP
chain 2: NAGVTQTPKFQVLKTGQSMTLQCAQDMNHEYMSWYRQDPGMGLRLIHYSVGAGITDQGEVPNGYNVSRSTTEDFPLRLLSAAPSQTSVYFCASSYHAGDRGFGYTFGSGTRLTVV
With B12 the No. of Cells [2] was 2 cells.

B13: Positive Control … (peptide)
chain: TLLALHRSYLTPGDS
For B13, the IC50 [19] was 257 nM.

B14: … (position 9) (peptide)
chain: PLVSSQCVNLTTRTQ
B14 was tested, and the IC50 [20] was 838 nM.

B15: … (position 734) (peptide)
chain: TSVDCTMYICGDSTE
Binder B15 has an IC50 [21] of 36700 nM.

B16: TCR_109 (protein)
chain 1: AQKITQTQPGMFVQEKEAVTLDCTYDTSDQSYGLFWYKQPSSGEMIFLIYQGSYDEQNATEGRYSLNFQKARKSANLVISASQLGDSAMYFCAMRDSNSNSGYALNFGKGTSLLVTP
chain 2: DAEITQSPRHKITETGRQVTLACHQTWNHNNMFWYRQDLGHGLRLIHYSYGVQDTNKGEVSDGYSVSRSNTEDLPLTLESAASSQTSVYFCASSDGHQGLQETQYFGPGTRLLVL
Work on B16 yielded a No. of Cells [2] of 2 cells.

B17: Positive Control … (peptide)
chain: PKYVKQNTLKLAT
B17 was tested, and the IC50 [22] was 5310 nM, the IC50 [23] was 257 nM and the IC50 [24] was 2320 nM.

B18: … (position 317) (peptide)
chain: NFRVQPTESIVRFPN
B18 gave an IC50 [25] of 1020 nM and an IC50 [26] of 1620 nM.

B19: … (position 26) (peptide)
chain: PAYTNSFTRGVYYPD
Work on B19 yielded an IC50 [27] of 153 nM.

B20: … (position 240) (peptide)
chain: TLLALHRSYLTPGDS
B20 was tested, and the IC50 [28] was 298 nM.

B21: … (position 43) (peptide)
chain: FRSSVLHSTQDLFLP
Binder B21 has an IC50 [29] of 85 nM and an IC50 [30] of 5570 nM.

B22: … (position 89) (peptide)
chain: GVYFASTEKSNIIRG
With B22 the IC50 [31] was 15500 nM and the IC50 [32] was 99 nM.

B23: … (position 167) (peptide)
chain: TFEYVSQPFLMDLEG
B23 showed an IC50 [33] of 7660 nM and an IC50 [34] of 442 nM.

B24: … (position 424) (peptide)
chain: KLPDDFTGCVIAWNS
B24 showed an IC50 [35] of 2060 nM.

B25: … (position 632) (peptide)
chain: TWRVYSTGSNVFQTR
With B25 the IC50 [36] was 1950 nM and the IC50 [37] was 220 nM.
